Substitutions are numbered along the chain they refer to. Values belong to the binder of their own block, whether it stands above or below them.
Molecular target: T1, human CTGF (antigen of the Biacore assays) (human, UniProt P29279 27-349, limits assumed)
T1 construct: also called human CTGF protein
T1 sequence: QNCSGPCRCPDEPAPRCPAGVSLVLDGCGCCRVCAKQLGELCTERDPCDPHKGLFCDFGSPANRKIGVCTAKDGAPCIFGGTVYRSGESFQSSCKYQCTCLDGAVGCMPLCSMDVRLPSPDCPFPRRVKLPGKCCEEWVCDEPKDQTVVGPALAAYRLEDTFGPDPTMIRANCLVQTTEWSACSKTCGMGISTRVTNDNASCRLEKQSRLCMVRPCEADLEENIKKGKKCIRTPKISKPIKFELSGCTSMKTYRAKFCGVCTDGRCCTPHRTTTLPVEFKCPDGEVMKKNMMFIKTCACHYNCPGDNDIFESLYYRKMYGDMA
Assay: SPR (Biacore T200), human CTGF on CM5 chip, antibody 150 ug/ml then 50 nM TGF-β1 as competitor
Procedure: The antigen human CTGF was firstly fixed onto a CM5 biosensor chip (Cat. #BR-1005-30, GE) by amino coupling at a level of 1500 RU. Then high-concentration CTGF antibody (150 μg/ml) was allowed to flow over the surface of the chip for 150 s, and 50 nM TGF-β1 protein was injected for 120 s. The reaction signals were detected in real time using a Biacore T200 instrument to obtain an association and dissociation curve. After dissociation was complete in each test cycle, the biosensor chip was washed thoroughly and regenerated with a regeneration buffer.
The data obtained from the experiment were statistically analyzed using GE Biacore T200 Evaluation version 3.0 software.
Blocking efficiency=[1−(sample response value/blank control response value)]×100%.

- Percent function blocking (%): 55.5%
B1: Hu164-67wl (antibody, human IgG1, lambda)
heavy: not shown
light: ETVVTQEPSLTVSPGGTVTLTCRSSIGAVTTSNYANWVQQKPGQAFRGLIGGTSNRAPWTPARFSGSLLGGKAALTLSGVQPEDEAEYYCALWYSTHYVFGGGTKLTVLGQPKANPTVTLFPPSSEELQANKATLVCLISDFYPGAVTVAWKADGSPVKAGVETTKPSKQSNNKYAASSYLSLTPEQWKSHRSYSCQVTHEGSTVEKTVAPTEC
notes: humanized from mab164, Hu164-VH6/VL7; IgG1/lambda

- Percent function blocking (%): 53.9%
B2: Hu164-67yl (antibody, human IgG1, lambda)
heavy: EVTLKESGPVLVKPTETLTLTCTVSGFSLSTFGVHWIRQPPGKGLEWLGVIWRRGGTDYNAAFMSRLTISKDTSKSQVVFTMTNMDPVDTATYYCARDGGFDYWGQGTTVTVSSASTKGPSVFPLAPSSKSTSGGTAALGCLVKDYFPEPVTVSWNSGALTSGVHTFPAVLQSSGLYSLSSVVTVPSSSLGTQTYICNVNHKPSNTKVDKKVEPKSCDKTHTCPPCPAPELLGGPSVFLFPPKPKDTLYITREPEVTCVVVDVSHEDPEVKFNWYVDGVEVHNAKTKPREEQYNSTYRVVSVLTVLHQDWLNGKEYKCKVSNKALPAPIEKTISKAKGQPREPQVYTLPPSRDELTKNQVSLTCLVKGFYPSDIAVEWESNGQPENNYKTTPPVLDSDGSFFLYSKLTVDKSRWQQGNVFSCSVMHEALHNHYTQKSLSLSPGK
light: B1 light
notes: humanized from mab164, Hu164-VH6/VL7

- Percent function blocking (%): 52.3%
B3: Hu147-22wk (antibody, human IgG1, kappa, V domains shown)
VH: EVQLVESGGGLVQPGGSLRLSCAASGFTFNTYAMNWVRQAPGKGLEWVARIRTKSNNYATYYADSVKDRFTISRDDSKNSLYLQMNSLKTEDTAVYYCVETGFAYWDQGTLVTVSS
VL: EIVLTQSPATLSLSPGERATLSCSASSSVSYMHWFQQKPGQSPKLLIYSTSNLASGIPARFSGSGSGTDYTLTISSLEPEDFAVYYCQQRSSYPLTFGQGTKLEIKR
notes: humanized from mab147, Hu147-VH2/VL2; IgG1/kappa

- Percent function blocking (%): 52.8%
B4: Hu147-24wk (antibody, human IgG1, kappa, V domains shown)
VH: B3 VH
VL: DIQMTQSPSSLSASVGDRVTITCSASSSVSYMHWFQQKPGKSPKLLIYSTSNLASGVPSRFSGSGSGTDYTLTISSLQPEDFATYYCQQRSSYPLTFGQGTKLEIKR
notes: humanized from mab147, Hu147-VH2/VL4; IgG1/kappa

- Percent function blocking (%): 51.6%
B5: Hu147-12wk (antibody, human IgG1, kappa, V domains shown)
VH: B3 VH with N30S, A49G
VL: B3 VL
notes: humanized from mab147, Hu147-VH1/VL2; IgG1/kappa

- Percent function blocking (%): 55%
B6: Hu147-31wk (antibody, human IgG1, kappa, V domains shown)
VH: B3 VH with T28S, K78E, N79S
VL: B3 VL with K44R
notes: humanized from mab147, Hu147-VH3/VL1; IgG1/kappa

- Percent function blocking (%): 55.2%
B7: Hu147-32wk (antibody, human IgG1, kappa, V domains shown)
VH: B3 VH with T28S, K78E, N79S
VL: B3 VL
notes: humanized from mab147, Hu147-VH3/VL2; IgG1/kappa

- Percent function blocking (%): 51.6%
B8: Hu147-21wk (antibody, human IgG1, kappa, V domains shown)
VH: B3 VH
VL: B3 VL with K44R
notes: humanized from mab147, Hu147-VH2/VL1; IgG1/kappa

- Percent function blocking (%): 57.3%
B9: Hu147-33wk (antibody, human IgG1, kappa, V domains shown)
VH: B3 VH with T28S, K78E, N79S
VL: B3 VL with L46W, I57V
notes: humanized from mab147, Hu147-VH3/VL3; IgG1/kappa

- Percent function blocking (%): 56.2%
B10: Hu147-34wk (antibody, human IgG1, kappa, V domains shown)
VH: B3 VH with T28S, K78E, N79S
VL: B4 VL
notes: humanized from mab147, Hu147-VH3/VL4; IgG1/kappa

- Percent function blocking (%): 53.3%
B11: Hu147-13wk (antibody, human IgG1, kappa, V domains shown)
VH: B3 VH with N30S, A49G
VL: B3 VL with L46W, I57V
notes: humanized from mab147, Hu147-VH1/VL3; IgG1/kappa

- Percent function blocking (%): 52.3%
B12: Hu147-15wk (antibody, human IgG1, kappa, V domains shown)
VH: B3 VH with N30S, A49G
VL: B4 VL with M4L, L46W
notes: humanized from mab147, Hu147-VH1/VL5; IgG1/kappa

- Percent function blocking (%): 50.8%
B13: Hu147-11wk (antibody, human IgG1, kappa, V domains shown)
VH: B3 VH with N30S, A49G
VL: B3 VL with K44R
notes: humanized from mab147, Hu147-VH1/VL1

- Percent function blocking (%): 54.6%
B14: Hu147-23wk (antibody, human IgG1, kappa, V domains shown)
VH: B3 VH
VL: B3 VL with L46W, I57V
notes: humanized from mab147, Hu147-VH2/VL3; IgG1/kappa

- Percent function blocking (%): 50.9%
B15: Hu147-14wk (antibody, human IgG1, kappa, V domains shown)
VH: B3 VH with N30S, A49G
VL: B4 VL
notes: humanized from mab147, Hu147-VH1/VL4; IgG1/kappa

- Percent function blocking (%): 41.3%
B16: CTGF antibody mAb1 (antibody, V domains shown)
VH: EGQLVQSGGGLVHPGGSLRLSCAGSGFTFSSYGMHWVRQAPGKGLEWVSGIGTGGGTYSTDSVKGRFTISRDNAKNSLYLQMNSLRAEDMAVYYCARGDYYGSGSFFDCWGQGTLVTVSS
VL: DIQMTQSPSSLSASVGDRVTITCRASQGISSWLAWYQQKPEKAPKSLIYAASSLQSGVPSRFSGSGSGTDFTLTISSLQPEDFATYYCQQYNSYPPTFGQGTKLEIKR
notes: positive control, from CN1829740B; also called pamrevlumab; FG-3019

— patent US20230416352A1 (JIANGSU HENGRUI PHARMACEUTICALS, published 2023)
